From patent US20260092121A1 (TALEM THERAPEUTICS, published 2026)
Positions count from the first letter of the chain named. In names and notes the source's numbering stands.

B1: anti-TrkB chicken-derived clone B11 (antibody, V domains shown)
VH: AVTLDESGGGLQTPGGALSLVCKASGFTFSSFNMFWVRQAPGKGLEFVAHIKRNGGETDYGAAVKGRATISRDDGQSTVRLQLNNLRAEDTATYFCAKDAGDNCRWNYCTTNIDAWGHGTEVIVSS
VL: QAALTQPASVSANPGETVKITCSGGGRWYGTYYYGWYQQKSPGSAPVTVIYSNDKRPSDIPSRFSGSASGSTATLTITGVQADDEAVYYCGSWDSTDTTAFGAGTTLTVL
notes: chimeric chicken-human mAb
B2: anti-TrkB chicken-derived clone D5 (antibody, V domains shown)
VH: AVTLDESGGGLQTPGGPLSLVCEGSGFTFSSYGMAWVRQAPGKRLEWVASISSTGINAYYGAAVKGRATISRDNGQSTVRLQLNNLRAEDTGIYYCSKCAYSGSCSTSIDAWGHGTEVIVSS
VL: QAALTQPASVSANLGGTVEITCSGGSSGYGYGWYQQKSPGSAPVTVIYNNNNRPSDIPSRFSGSLSDSTHTLTITGVRAEDEAVYFCGAWESSATDIFGAGTTLTVL
notes: chimeric chicken-human mAb
B3: anti-TrkB chicken-derived clone F5 (antibody, V domains shown)
VH: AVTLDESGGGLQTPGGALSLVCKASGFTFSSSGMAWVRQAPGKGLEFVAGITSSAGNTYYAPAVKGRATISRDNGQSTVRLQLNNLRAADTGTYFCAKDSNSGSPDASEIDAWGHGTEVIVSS
VL: QAALTQPASVSANPGETVKITCSGYKSYYGWYQQKSPGSAPVTVIYDNTNRPSNIPSRFSGSTSGSTATLTITGVQADDEAVYYCGNADHSYVGVFGAGTTLTVL
notes: chimeric chicken-human mAb
B4: anti-TrkB chicken-derived clone B1.2 (antibody, V domains shown)
VH: AVTLDESGGGLQTPGGGLSLVCKASGFTFSNHQMAWVRQAPGKGLEYVGLINAAGSWTYYGTAVKGRATISRDNGQSTVRLQLNNLRAEDTATYYCAKDVYGYCSTCGATIDTWGHGTEVIVSS
VL: QAALTQPSSVSANPGETVKITCSGPTYDYGWFQQKSPGSAPVTVIYYNDNRPSDIPSRFSGSKSGSTATLTITGVQAEDEAVYYCGTYEDNNGASFGAGTTLTVL
notes: chimeric chicken-human mAb
B5: anti-TrkB chicken-derived clone E2 (antibody, V domains shown)
VH: AVTLDESGGGLQTPGGALSLVCKASGFDFSSNAMGWVRQAPGKGLEFIASITTDGSYTTYGAAVKGRATISRDDGQSTLRLQLNNLRAEDTATYYCAKDSSIHWNGYDIDAWGHGTEVIVSS
VL: QAALTQPSSVSANPGETVKITCSGSINNYGWYQQKSPGSAPVTVIYQNDKRPSDIPSRFSGSKSGSTGTLTITGVQAEDEAVYFCGSEDSRTYLGIFGAGTTLTVL
notes: chimeric chicken-human mAb
B6: anti-TrkB chicken-derived clone B4.2 (antibody, V domains shown)
VH: AVTLDESGGGLQTPGGGLSLVCKASGFTFSSYTMQWVRQAPGKGLEWVAGICNDGTTTNYGSAVKGRATISRDNGQSTLRLQLNNLRAEDTGIYFCTRGVDICWNSGNNIDAWGHGTEVIVSS
VL: QAALTQPASVSANPGETVKITCSGGGSYYGSYYYGWYQQKSPGSAPVTVIYNNDKRPSDIPSRFSGSLSGSTNTLTITGVQVEDESVYFCGSKDSSGAGIYGAGTTLTVL
notes: chimeric chicken-human mAb
B7: anti-TrkB chicken-derived clone F1.3 (antibody, V domains shown)
VH: AVTLDESGGGLQTPGGALSLVCKASGFTFSSFPMVWVRQAPGKGLEFVAGIVRTSTPKYGAAVTGRATISRDNGQSTVRLQLNNLRAEDTGTYFCAKSATICGNCPEDIDAWGHGTEVIVSS
VL: QAALTQPASVSANPGETVKITCSGGSSDYGWFQQKSPGSAPVTVIYYSDKRPSDIPSRFSGSTSGSTNTLTITGVQVEDEAVYFCGSGDNSYVGFGAGTTLTVL
notes: chimeric chicken-human mAb
B8: anti-TrkB chicken-derived clone A12 (antibody, V domains shown)
VH: B7 VH
VL: QAALTQPASVSANPGETVKITCSGGSSDYGWFQQKSPGSAPVTVIYYSDKRPSDIPSRFSGSASGSMGALIITGVQAEDEAVYFCGSRDSSNVAIFGAGTTLTVL
notes: chimeric chicken-human mAb
B9: anti-TrkB chicken-derived clone B5 (antibody, V domains shown)
VH: B7 VH
VL: B8 VL with A63T
notes: chimeric chicken-human mAb
B10: KiH.6E08_TrkB × 1A09_CD3 (bispecific antibody)
scFv: QVQLVQSGGGVVQPGRSLRLSCAASGFTFSSYAMHWVRQAPGKGLEWVAVISYDGSNKYYADSVKGRFTISRDNSKNTLYLQMNSLRAEDTAVYYCARAFRRYDAFDIWGQGTLVTVSSSSGGGGSGGGGSGGSALDIQMTQTPLSLSVTLGQPASISCRSSQGLVYSDGNTYLNWFQQRPGQSPRRLIYKVSNRDSGVPDRFSGSGSGTDFTLKISRVEAEDVGVYYCMQGTHWPPAFGQGTKVEIK
VH: EVQLVQSGGGLVKPGGSLRLSCAASGFTFSSYSMNWVRQAPGKGLEWVSSISSSSSYIYYADSVKGRFTISRDNSKNTLYLQMNSLRAEDTAVYYCARVKDYDSSLDYWGQGTLVTVSS
VL: SYELMQPPSVSVSPGQTARITCSGFKLGDKYVSWYQQKPGQSPVLVIYQDSKRPSGIPERFSGSNSGNTATLTISGTQAMDEADYYCQAWDSSTVVFGGGTKLTVL
notes: scFv-knob-Fc (IgG1 T366W/S354C) + Fab-hole-Fc (T366S/L368A/Y407V/Y349C); also called 6E08-1A09
B11: KiH.6E08_TrkB × 3G07_CD3 (bispecific antibody)
scFv: B10 scFv
VH: QVQLQQSGGGLVQPGGSLRLSCAASGFSFGSSAMSWVRQAPGRGLEWVSGISHSGSTTYYADSVKGRFTISRDNSKNTLYLQMNSLRVEDTAVYYCAKIGAYGYYFHYWGQGTLVTVSS
VL: NFMLTQPHSLSESPGKTVTISCTRSSGSIASKYVQWYQQRPGSAPTTVIYDDKQRPSGVPDRFSGSFDSSSNSASLTISGLKTEDEADYYCQSFDSTNQAVVFGGGTKLTVL
notes: scFv-knob-Fc (IgG1 T366W/S354C) + Fab-hole-Fc (T366S/L368A/Y407V/Y349C); also called 6E08-3G07
B12: KiH.3C12_TrkB × 1A09_CD3 (bispecific antibody)
scFv: QVQLVQSGAEVKKPGESLKISCKGSGYSFTSYWIGWVRQMPGKGLEWMGIIYPGDSDTRYSPSFQGQVTISADKSISTAYLQWSSLKASDTAMYYCTRSSFNDHWGQGTLVTVSSSSGGGGSGGGGSGGSALQPVLTQPPSVSVSPGQTASITCSGDKLGNKFVSWFQQKPGQSPVLVIYQDTKRPSGIPERFSGSNSGSTATLTITGTQAMDDADYYCQAWNTNTALFGGGTKLTVL
VH: B10 VH
VL: B10 VL
notes: scFv-knob-Fc (IgG1 T366W/S354C) + Fab-hole-Fc (T366S/L368A/Y407V/Y349C); also called 3C12-1A09; 3C12/1A09
B13: KiH.6E08_TrkB × 8A05_CD3 (bispecific antibody)
scFv: B10 scFv
VH: B11 VH with P14S
VL: NFMLTQPHSVSESPGKTVTISCTRSGGSIASNYVQWYQQRPGSSPTTVIYDDNQRPSGVPDRFSGSIDSSSNSASLTISGLKTEDEADYYCQSSDNINHVIFGGGTKLTVL
notes: scFv-knob-Fc (IgG1 T366W/S354C) + Fab-hole-Fc (T366S/L368A/Y407V/Y349C); also called 6E08-8A05
B14: KiH.3C12_TrkB × 8A05_CD3 (bispecific antibody)
scFv: B12 scFv
VH: B11 VH with P14S
VL: B13 VL
notes: scFv-knob-Fc (IgG1 T366W/S354C) + Fab-hole-Fc (T366S/L368A/Y407V/Y349C); also called 3C12-8A05; 3C12/8A05
B15: KiH.3C12_TrkB × 3G07_CD3 (bispecific antibody)
scFv: B12 scFv
VH: B11 VH
VL: B11 VL
notes: scFv-knob-Fc (IgG1 T366W/S354C) + Fab-hole-Fc (T366S/L368A/Y407V/Y349C); also called 3C12-3G07; 3C12/3G07

molecular target: T1, human TrkB-His (human, UniProt Q16620 32-430); assay: BLI off-rate, mAb immobilized, 300 nM TrkB-His
T1 construct: in-house fusion of the TrkB ECD with poly-His, HEK293; also called huTrkB-His; hTrkB-His; not shown: poly-His tag

koff [s⁻¹]	Binder
0.00434	B1
0.000219	B2
0.00163	B3
0.000483	B4
0.000575	B5
0.00136	B6
0.0156	B7
0.00176	B8
0.00114	B9

molecular target: T1, human TrkB-His; assay: ELISA

binding result	Binder
binds	B10
binds	B11
binds	B12
binds	B13
binds	B14
binds	B15

molecular target: TrkB in PathHunter eXpress TrkB Functional Assay cells (modified U2OS); assay: cell-based or functional assay

TrkB activation (EC50) [ng/mL]	Binder
0.00086	B1
180	B2
46	B3
7.5	B4
170	B5
380	B7
4.5	B8
8.9	B9
